Values quoted from earlier work as cited in article PMC5028754.

Target: ubiquitin (UniProt P0CG48)
Assay: NMR
Settings: cited from earlier work

Ddi1 UBA, sequence (P40087 386-428): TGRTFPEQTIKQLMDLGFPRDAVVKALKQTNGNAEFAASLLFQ
Ddi1 UBL, sequence (P40087 1-80): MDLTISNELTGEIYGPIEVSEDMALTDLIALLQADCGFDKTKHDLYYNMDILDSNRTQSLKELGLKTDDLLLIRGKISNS

In the case of Ddi1 UBA (from UniProt P40087), the Kd is listed as 150 µM.
In the case of Ddi1 UBL (from UniProt P40087), the Kd is listed as 45 µM.
